Laboratory results taken from publication PMC10864275, “Binding kinetics drive G protein subtype selectivity at the β1-adrenergic receptor” (Nature Communications, 2024).
“And” between values parts separate entries of the source, which are not always exact repeats. Identical values can stand only once.

B1: mini-Gs 393 with C96A (domain or fragment)
chain: GIEKQLQKDKQVYRATHRLLLLGADNSGKSTIVKQMRIYHGGSGGSGGTSGIFETKFQVDKVNFHMFDVGGQRDERRKWIQAFNDVTAIIFVVDSSDYNRLQEALNDFKSIWNNRWLRTISVILFLNKQDLLAEKVLAGKSKIEDYFPEFARYTTPEDATPEPGEDPRVTRAKYFIRDEFLRISTASGDGRHYCYPHFTCAVDTENARRIFNDCRDIIQRMHLRQYELL
modifications: not checked
B2: mini-Go1 R12 (domain or fragment)
chain: IEKNLKEDGISAAKDVKLLLLGADNSGKSTIVKQMKIIHTTGIVETHFTFKNLHFRLFDVGGQRSERKKWIHCFEDVTAIIFCVDLSDYNRMHESLMLFDSICNNKFFIDTSIILFLNKKDLFGEKIKKSPLTICFPEYTGPNTYEDAAAYIQAQFESKNRSPNKEIYCHMTCATDTNNAQVIFDAVTDIIIANNLRGCGLY
modifications: not checked

How the values were obtained:
[1] = molecular target: avi-β1AR-E (turkey β1-adrenergic receptor, β1AR-E construct with N-terminal biotinylated avi-tag) (turkey), P07700; assay: BLI; biotinylated avi-β1AR in LMNG on streptavidin biosensors, mini-G in solution; 500 μM isoprenaline; 20 mM TrisHCl pH 8.0, 150 mM NaCl, 15 mM MgCl2, 0.02% LMNG, 0.1% BSA; 25 °C; single point measurements, monophasic 1:1 local fit, n = 3
Sequence of avi-β1AR-E (turkey β1-adrenergic receptor, β1AR-E construct with N-terminal biotinylated avi-tag) (turkey), P07700 (P07700 other isoform, or with tags, fused parts or gaps): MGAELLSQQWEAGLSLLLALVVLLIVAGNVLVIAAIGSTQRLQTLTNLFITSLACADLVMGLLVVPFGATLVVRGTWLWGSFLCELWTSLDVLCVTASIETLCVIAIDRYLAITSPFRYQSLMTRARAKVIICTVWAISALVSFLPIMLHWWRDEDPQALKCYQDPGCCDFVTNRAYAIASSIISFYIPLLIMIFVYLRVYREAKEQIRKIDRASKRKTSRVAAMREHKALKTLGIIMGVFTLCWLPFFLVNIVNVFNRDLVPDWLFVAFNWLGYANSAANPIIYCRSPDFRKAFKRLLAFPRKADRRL

[2] = molecular target: avi-β1AR-W (turkey β1-adrenergic receptor β1AR-MetΔ5, thermostabilised with E130W, N-terminal biotinylated avi-tag) (turkey), P07700; assay: BLI; biotinylated avi-tagged receptor in LMNG immobilised on streptavidin biosensors; 500 μM isoprenaline; mini-G in solution at a single concentration (0.125-4 μM); 20 mM TrisHCl pH 8.0, 150 mM NaCl, 15 mM MgCl2, 0.02% LMNG, 0.1% BSA; 25 °C; 1:1 monophasic local partial fit; one of n = 3 tips
Sequence of avi-β1AR-W (turkey β1-adrenergic receptor β1AR-MetΔ5, thermostabilised with E130W, N-terminal biotinylated avi-tag) (turkey), P07700 (P07700 other isoform, or with tags, fused parts or gaps E130W): as the sequence (P07700 other isoform, or with tags, fused parts or gaps) above, with E100W counted along it

[3] = molecular target: avi-β1AR-E (turkey β1-adrenergic receptor, minimally thermostabilised construct with E130 restored, N-terminal biotinylated avi-tag) (turkey), P07700; assay: as above
Sequence of avi-β1AR-E (turkey β1-adrenergic receptor, minimally thermostabilised construct with E130 restored, N-terminal biotinylated avi-tag) (turkey), P07700 (P07700 other isoform, or with tags, fused parts or gaps): as the sequence (P07700 other isoform, or with tags, fused parts or gaps) above

| Binder | Kd [1] | fold reduction of kon against mini-Gs [1] | Kd [2] | koff [2] | kon [2] | Kd [3] | koff [3] | kon [3] |
| --- | --- | --- | --- | --- | --- | --- | --- | --- |
| B1 | 47 nM |  |  |  |  |  |  |  |
| B2 | 1340 nM | 50 fold | 8710 nM and 8110 nM and 5420 nM | 0.0102 s⁻¹ and 0.00894 s⁻¹ and 0.00914 s⁻¹ | 1170 M⁻¹ s⁻¹ and 1100 M⁻¹ s⁻¹ and 1690 M⁻¹ s⁻¹ | 1430 nM and 1120 nM and 1460 nM | 0.0042 s⁻¹ and 0.00358 s⁻¹ and 0.00401 s⁻¹ | 2950 M⁻¹ s⁻¹ and 3200 M⁻¹ s⁻¹ and 2740 M⁻¹ s⁻¹ |
